The record followed here is article PMC5607099 (Molecular microbiology, 2017).

For series [1], the target named is T1, His-tagged TamA (purified recombinant) (E. coli, UniProt P0ADE4 22-577).
T1 sequence (looked up): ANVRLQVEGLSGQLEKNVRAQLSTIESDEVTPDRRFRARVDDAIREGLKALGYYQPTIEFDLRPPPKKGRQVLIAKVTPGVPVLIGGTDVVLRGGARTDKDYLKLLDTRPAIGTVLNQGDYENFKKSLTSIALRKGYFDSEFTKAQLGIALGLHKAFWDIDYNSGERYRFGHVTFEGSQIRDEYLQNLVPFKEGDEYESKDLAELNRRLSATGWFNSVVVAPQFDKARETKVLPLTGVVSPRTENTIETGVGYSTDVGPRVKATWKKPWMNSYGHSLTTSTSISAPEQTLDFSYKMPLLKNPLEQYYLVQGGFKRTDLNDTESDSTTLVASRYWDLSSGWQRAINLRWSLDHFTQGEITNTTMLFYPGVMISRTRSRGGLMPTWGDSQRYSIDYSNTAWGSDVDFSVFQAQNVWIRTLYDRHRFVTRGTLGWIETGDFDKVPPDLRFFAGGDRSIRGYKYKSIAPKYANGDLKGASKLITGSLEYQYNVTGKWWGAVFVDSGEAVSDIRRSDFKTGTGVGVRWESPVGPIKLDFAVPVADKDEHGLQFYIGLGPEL
The series can be described thus: peptide or protein array.

For series [2], the target named is T1, His-tagged TamA (purified recombinant). Description: cross-linking.
For series [3], the target named is His-tagged BamA (purified recombinant) (E. coli, UniProt P0A940 21-810). The series can be described thus: peptide or protein array.
The series “semi-native SDS-PAGE” deals with the molecule itself. The series can be described thus: semi-native SDS-PAGE.

Ends that are not written are not given here. * marks the point of attachment. Biotin = O=C1N[C@H]2[C@H](CS[C@H]2CCCCC(=O)*)N1

Turning to GGYGNANIGYSHSDDIKQSA [FimD peptide 23 (β-strand 23)], the binding result in series [1] was “binds”. Regarding Biotin-FDGINFRGAQLASDDNMLK [Biotin-FDGINFRGAQLASDDNMLK (FimD peptide 6 with N-terminal biotin and C-terminal lysine)], in series [2], the binding result is “binds”. For the molecule GGNSHYAYLNLQSGLNIGAA [FimD peptide 2 (β-strand 2)], the binding result in series [3] is “binds”.

As to FDGINFRGAQLASDDNMLSA [FimD peptide 6 (β-strand 6), on the array], in series [1], the binding result is given as “binds”.

B1: His-tagged OmpF (natural protein, UniProt P02931 23-362, looked up)
chain: AEIYNKDGNKVDLYGKAVGLHYFSKGNGENSYGGNGDMTYARLGFKGETQINSDLTGYGQWEYNFQGNNSEGADAQTGNKTRLAFAGLKYADVGSFDYGRNYGVVYDALGYTDMLPEFGGDTAYSDDFFVGRVGGVATYRNSNFFGLVDGLNFAVQYLGKNERDTARRSNGDGVGGSISYEYEGFGIVGAYGAADRTNLQEAQPLGNGKKAEQWATGLKYDANNIYLAANYGETRNATPITNKFTNTSGFANKTQDVLLVAQYQFDFGLRPSIAYTKSKAKDVEGIGDVDLVNYFEVGATYYFNKNMSTYVDYIINQIDSDNKLGVGSDDTVAVGIVYQF
As a reminder, the stoichiometry N is a count of units in the complex or per binding partner. For the molecule B1, in “semi-native SDS-PAGE”, the “stoichiometry N” value was 3. In the case of INAGLLNYNFSGNSVQNRSA [FimD peptide 1 (β-strand 1)], the binding result in series [3] is recorded as “binds”.
